Test results: article PMC9934059, “Characterization of a glycan-binding complex of minor pilins completes the analysis of Streptococcus sanguinis type 4 pili subunits” (Proceedings of the National Academy of Sciences of the …, 2023)

Columns and labels:
6His–PilC = assay: ITC; conditions: parent: est. 1.0; read off a plot
PilC [1] = biological target: T1, PilC (Streptococcus sanguinis, UniProt A0A0B7GRV8, K358A); assay: ITC of mutant, KD ratio to WT (reduced affinity); format: binding
T1 construct: PilCΔpilin (lacking the pilin moiety), strain 2908
T1 sequence (A0A0B7GRV8 122-486 K358A): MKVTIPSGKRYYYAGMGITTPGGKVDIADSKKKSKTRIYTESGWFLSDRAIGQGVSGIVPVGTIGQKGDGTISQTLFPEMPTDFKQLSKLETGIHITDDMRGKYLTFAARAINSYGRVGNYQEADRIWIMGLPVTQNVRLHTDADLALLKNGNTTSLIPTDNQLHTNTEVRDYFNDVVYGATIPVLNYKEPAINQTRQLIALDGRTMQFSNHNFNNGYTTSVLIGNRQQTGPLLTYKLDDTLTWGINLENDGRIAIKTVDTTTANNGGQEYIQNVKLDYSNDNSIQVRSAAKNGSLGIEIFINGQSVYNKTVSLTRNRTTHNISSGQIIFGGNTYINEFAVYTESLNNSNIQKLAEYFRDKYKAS

PilC [2] = biological target: T2, PilC (Streptococcus sanguinis, UniProt A0A0B7GRV8); assay: ITC (three independent experiments); supported by glycan microarray; format: binding
T2 construct: 6His–PilCΔpilin (lacking the pilin moiety; Ig-like and lectin modules), strain 2908

[3] = biological target: 6His–PilC (Streptococcus sanguinis 2908); assay: ITC; MicroCal ITC200; average ± SD of three (mutants: 2 to 3) independent experiments
[4] = biological target: 6His–PilC (Streptococcus sanguinis 2908); assay: SEC-MALS; ÄKTA Prime, S200 10/300 GL column, Wyatt MALS detector; 6His–PilA and 6His–PilC separately and after mixing equimolar amounts
[5] = biological target: 6His–PilA (Streptococcus sanguinis 2908); assay: as above

## 6His–PilA K85A
6His–PilC
  ratio to parent: 0.98

## CC(=O)N[C@H]1[C@H]([C@H](O)[C@H](O)CO)O[C@@](O[C@H]2[C@@H](O)[C@@H](CO)O[C@@H](O[C@H]3[C@H](O)[C@@H](O)C(O)O[C@@H]3CO)[C@@H]2O)(C(=O)O)C[C@@H]1O (stereo partly drawn) [3′-SL, 3′-sialyllactose]
PilC [1]
  % of WT binding: 39.3 ± 1.4 % of WT binding
PilC [2]
  Kd: 79.1 ± 0.36 µM

## CC(=O)N[C@H]1[C@H]([C@H](O)[C@H](O)CO)O[C@@](O[C@H]2[C@@H](O)[C@@H](CO)O[C@@H](O[C@H]3[C@H](O)[C@@H](NC(C)=O)C(O)O[C@@H]3CO)[C@@H]2O)(C(=O)O)C[C@@H]1O (stereo partly drawn) [3′-SLN, 3′-sialyl-N-acetyllactosamine]
PilC [2]
  Kd: 144 ± 7.36 µM

## 6His–PilA A68S
6His–PilC
  ratio to parent: 0.87

## 6His–PilA (domain or fragment)
[3]
  Kd: 0.0238 µM
[4]
  stoichiometry N: 1
[5]
  stoichiometry N: 2

## PilA_(T87A) (from UniProt A0A0B7GNW3 33-164) (domain or fragment)
[3]
  percent of the wild-type (WT) binding (KD ratio to the WT): 38.3%
